Tested on: MS2 coat protein
Experiment: apparent KD of MS2 coat protein; designed switch direction (-1 OFF switch, 1 ON switch): 1; higher = weaker reporter binding
Method in brief: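 Designed RNA switches were transcribed on Illumina chips by stalled E. coli RNA polymerase and titrated with SNAP-549-labelled MS2 coat protein from 0.7 or 1.5 nM, doubling to 3 µM. Step length ran from 0.8–1.5 h at the lowest concentration to 10–20 min at the highest. The apparent KD is the median over clusters for each design, from curve-fitted normalised cluster fluorescence.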

[1] = input ligand: microRNA oligo, concentration not stated
[2] = Eterna round: R95, input ligand: FMN 200 uM
[3] = Eterna round: R95, input ligand: microRNA oligo, concentration not stated
[4] = Eterna round: R95, input ligand: none

| Sequence | apparent KD of MS2 coat protein (input ligand: FMN 200 uM) | apparent KD of MS2 coat protein [1] | apparent KD of MS2 coat protein (input ligand: none) | apparent KD of MS2 coat protein [2] | apparent KD of MS2 coat protein [3] | apparent KD of MS2 coat protein [4] |
| --- | --- | --- | --- | --- | --- | --- |
| GGAAUAUUUACAGGAUAUGAGUUGUAAAGUCGAUCAGAAGGGUAGGUGUCUUACACGGUGUGUUACAUGAGGAUCACCCAUGUU [SameState NG1 #20] (Eterna round: R96, puzzle: Same State NG 1) | 0.136 µM | 0.147 µM | 0.215 µM |  |  |  |
| AUUUUUAAUGCAGGAUAUGAUUAACAUGAGGAUCACCCAUGUGGUGUUGUGAGUAAGGAGAGUGAUCAGAAGGGCAUUUUUUGU [JMF's solution 87] (Eterna round: R96, puzzle: Same State NG 2) | 0.827 µM | 0.301 µM | 0.621 µM |  |  |  |
| GCACAUGCACAUGAGGAUCACCCAUGUCCCGCGCCCAUUAGGGCGCGGUGGCCGCAAGUUUUUUGCUCGUCUUAUAA [BIOPHYS241_ElaineNg_2] (puzzle: Sensor for hsa-mir-208a version 2) |  |  |  | 0.0294 µM | 0.0213 µM | 0.0388 µM |
| GUUGAGAAAUAAGGAUAUACAUGGAAGACACAUGAGGAUCACCCAUGUGGGAGGGAAACCAGGAGGUAGAAGGUAUUGGGAAAC [AK SSNG2-V2-23] (Eterna round: R96, puzzle: Same State NG 2) | 0.0331 µM | 0.0241 µM | 0.0437 µM |  |  |  |
| GAGGAACAUGAGGAUCACCCAUGUGGGAUGGGACAAGGAUAUGUAGGUAGAGGAGAAGAGACAGAAGGUGUAGGAG [JR_SS1_Sub052] (puzzle: Same State 1) |  |  |  | 0.349 µM | 0.232 µM | 0.66 µM |
| UCAAGCGUUUGGCUCGUCUUAUGUUUGGUACAUGAGGAUCACCCAUGUUAUGUACGAUCCAGUUAGAUGGUAUUUUG [JR_SHM208A_Sub037] (puzzle: Sensor for hsa-mir-208a) |  |  |  | 0.0359 µM | 0.127 µM | 0.0471 µM |
| UAGGGACAUGAGGAUCACCCAUGUGCCUCAUAUGGAGAAACUCAGGAUAUGCUGAGGAUCACCCGGCAGAAGGGAGAUUUGACC (Eterna round: R96, puzzle: Same State NG 3) | 0.0242 µM | 0.0371 µM | 0.0532 µM |  |  |  |
| AAUUAAUUAAUUAAGUACAUGAGGAUCACCCAUGUAAGUGAUCAGGAUAUCAGCUCGUUUAGAGCUGAGAAGGGAUCCAUGUAC [SSNG3/15-A3] (Eterna round: R96, puzzle: Same State NG 3) | 0.359 µM | 0.297 µM | 0.404 µM |  |  |  |
| GGAGCCGGCACUGAGGAUAUUCAUUUUAAAACAUGAGGAUCACCCAUGUAGGCCAGAAGGCCUUGGGAGAAGGCAGGUCGGCCCG [Bibimoar - 6] (puzzle: Same State 2) |  |  |  | 0.0185 µM | 0.19 µM | 0.271 µM |
| CGAUGAUACUCAGGAAGGAGAGUAGAGGAACAUGAGGAUCACCCAUGUAUGAGCUUUUUGCUCGUCAUGAACAGGAG [JR_SHM208a_Sub009] (puzzle: Sensor for hsa-mir-208a) |  |  |  | 0.107 µM | 0.0644 µM | 0.111 µM |
| GCUGCAAAGGCAGGAUAUGGGUCCAGAGCGCAAAUGCGCUCUGGUACAUGAGGAUCACCCAUGUCCCAGAAGGGCCCAAGCAGC [Inleedbi] (Eterna round: R96, puzzle: Same State NG 2) | 0.017 µM | 0.0613 µM | 0.117 µM |  |  |  |
| UUUAGAUUCAGAGGAUAUUGAUGUUGUAUUUUACAAGAAGGCUGAUUGGUUUGAAAUGUUAUUAAACAUGAGGAUCACCCAUGU [JR_SSNG1_Sub012] (Eterna round: R96, puzzle: Same State NG 1) | 0.0317 µM | 0.0323 µM | 0.0445 µM |  |  |  |
| CUGAAAUGUCAAGGAUAUCACGUCGAUUAGACGUGAGAAGGUGAUCUACACAUGAGGAUCACCCAUGUGUUACGUGGGAGUCAG [Brourd's SSNG1/1-A2 mod 18] (Eterna round: R96, puzzle: Same State NG 1) | 0.0821 µM | 0.104 µM | 0.171 µM |  |  |  |
| GCUCGAUGAAAGUCCUACAUGAGGAUCACCCAUGUACGUGGGCAGGAUAUCUACAUGCAGAAUGUAGAGAAGGGCCCAUCGAGC [SameState NG3 #59] (Eterna round: R96, puzzle: Same State NG 3) | 0.0104 µM | 0.0151 µM | 0.0252 µM |  |  |  |
| GGUGCCAAUAAAGCCUACAUGAGGAUCACCCAUGUAUGUAGGCAGGAUAUCGUUUGCAAAGCAAACGAGAAGGGCCUAGGCACC [Mat - Same State NG 3 - JL Mod - D61] (Eterna round: R96, puzzle: Same State NG 3) | 0.0186 µM | 0.0214 µM | 0.0315 µM |  |  |  |
| AUUAAUUAAUUAAUACAUGAGGAUCACCCAUGUAAUAAGAUCAAGGAUAUCAGCUCGAUUAGAGCUGAGAAGGUGAUCACAUGU [SSNG3/17-B2] (Eterna round: R96, puzzle: Same State NG 3) |  | 0.509 µM |  |  |  |  |
| AAUUCAAACAGAGGAUAUUGUUUAUCUCUAUUGCAAGAAGGCUGAUCUUACUACCCACUUAUGAAACAUGAGGAUCACCCAUGU [JR_SSNG1_Sub018] (Eterna round: R96, puzzle: Same State NG 1) |  | 0.0301 µM |  |  |  |  |
| AAGCCUGUAGCACAGGAUAUCCGAGGCAAAACAUGAGGAUCACCCAUGUCAAACGAAAAUCCGAAGGAGAAGGGUGAACAGGCUC [Laarededqu] (puzzle: Same State 2) |  |  |  | 0.0109 µM | 0.00783 µM | 0.00824 µM |
| AUUAUUAAUGCAGGAUAUGAAUAACAUGAGGAUCACCCAUGUGGUGUUGUGAGUAAGGAGAGAGAUCAGAAGGGCAUUUUUUUU [JMF's solution 4] (Eterna round: R96, puzzle: Same State NG 2) | 0.349 µM | 0.225 µM | 0.258 µM |  |  |  |
| GGAUCCGGCACUGAGGAUAUUCAUAUUUAAACAUGAGGAUCACCCAUGUAGGCCAGAAGGCCUUGGGAGAAGGCAGGUCGGCUCG [salish99_ss2_r3_082] (puzzle: Same State 2) |  |  |  | 0.0276 µM | 0.268 µM | 0.484 µM |
| AUCAUUUAUGCAGGAUAUGAUUAACAUGAGGAUCACCCAUGUGGUGUUGUGAGUAAGGAGAGUGAUCAGAAGGGCAUUUUUUUU [JMF's solution 72] (Eterna round: R96, puzzle: Same State NG 2) | 0.476 µM | 0.296 µM | 0.482 µM |  |  |  |
| GACAAUCUAUCUGAGGAUAUCAUGAAUAAAACAUGAGGAUCACCCAUGUGCAGGAUAACUGCAAAUGAGAAGGCAGAUAGAUUGG [Mat - Same State 2 - Mod - D9] (puzzle: Same State 2) |  |  |  | 0.00921 µM | 0.02 µM | 0.018 µM |
| UGUCCAGCCUGAGCUGGACAAAAGCAUGUACAUGAGGAUCACCCAUGUUCAUGUACAAGCUUUUUGCUCGUCUUAAG [salish99_208a_r3_032] (puzzle: Sensor for hsa-mir-208a) |  |  |  | 0.547 µM | 0.0139 µM | 0.533 µM |
